This is an account of results in publication PMC8307315.

Common to all, as to assay: SPR; Biacore 2000, CM4 chip; PSA amine-coupled, antibody or conjugate bound to it; 10 min into the dissociation phase 40 nM FcRn in 10 mM maleic acid (pH 6.0) flown over for 3 min; number of FcRn bound per antibody from the RUs at the end of the FcRn injection
A general note: In SPR one partner is held on a chip, and binding of the other changes the refractive index at the surface.

In experiment [1] the target is hu5A10-DOTA, 12:1 chelator-to-antibody molar ratio.
Experiment [2] has as its target hu5A10-DOTA, 3:1 chelator-to-antibody molar ratio.
Experiment [3] addresses hu5A10-DOTA, 6:1 chelator-to-antibody molar ratio.
The target of experiment [4] is hu5A10-DTPA, 12:1 chelator-to-antibody molar ratio.
In experiment [5] the target is hu5A10-DTPA, 3:1 chelator-to-antibody molar ratio.
Experiment [6] has as its target hu5A10-DTPA, 6:1 chelator-to-antibody molar ratio.
Experiment [7] has as its target humanized 5A10 (hu5A10), unconjugated.

Take “neonatal fc-receptor (FcRn) (from UniProt P55899 24-297)”: the FcRn bound per antibody (FcRn per antibody) was determined as 0.1 in experiment [1]; 0.8 in experiment [2]; 0.5 in experiment [3]; 1.7 in experiment [4]; 1.9 in experiment [5]; 1.9 in experiment [6]. In experiment [7], this substance had a FcRn bound per antibody (FcRn per antibody) of 1.8.
